Experimental findings from patent US20160136234A1 are described below.

Common to all, as to test: cell-based or functional assay
Test [1] has as its target T1, NEK3 (h) (human) (UniProt P51956).
T1 sequence (looked up): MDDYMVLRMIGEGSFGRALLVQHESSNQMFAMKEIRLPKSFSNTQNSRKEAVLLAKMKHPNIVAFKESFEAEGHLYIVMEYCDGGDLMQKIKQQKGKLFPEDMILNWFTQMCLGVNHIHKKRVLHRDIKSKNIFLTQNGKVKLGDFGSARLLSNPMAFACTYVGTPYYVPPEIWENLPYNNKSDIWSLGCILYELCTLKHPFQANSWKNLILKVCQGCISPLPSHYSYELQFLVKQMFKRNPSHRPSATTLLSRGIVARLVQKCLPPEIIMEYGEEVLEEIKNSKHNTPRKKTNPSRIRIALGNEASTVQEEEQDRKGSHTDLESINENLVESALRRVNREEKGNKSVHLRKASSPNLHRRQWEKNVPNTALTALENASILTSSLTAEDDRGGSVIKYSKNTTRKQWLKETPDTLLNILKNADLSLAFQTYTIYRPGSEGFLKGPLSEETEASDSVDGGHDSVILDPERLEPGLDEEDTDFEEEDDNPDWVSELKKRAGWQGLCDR

Test [2] addresses T2, DCAMKL2 (h) (human) (UniProt Q8N568).
T2 sequence (looked up): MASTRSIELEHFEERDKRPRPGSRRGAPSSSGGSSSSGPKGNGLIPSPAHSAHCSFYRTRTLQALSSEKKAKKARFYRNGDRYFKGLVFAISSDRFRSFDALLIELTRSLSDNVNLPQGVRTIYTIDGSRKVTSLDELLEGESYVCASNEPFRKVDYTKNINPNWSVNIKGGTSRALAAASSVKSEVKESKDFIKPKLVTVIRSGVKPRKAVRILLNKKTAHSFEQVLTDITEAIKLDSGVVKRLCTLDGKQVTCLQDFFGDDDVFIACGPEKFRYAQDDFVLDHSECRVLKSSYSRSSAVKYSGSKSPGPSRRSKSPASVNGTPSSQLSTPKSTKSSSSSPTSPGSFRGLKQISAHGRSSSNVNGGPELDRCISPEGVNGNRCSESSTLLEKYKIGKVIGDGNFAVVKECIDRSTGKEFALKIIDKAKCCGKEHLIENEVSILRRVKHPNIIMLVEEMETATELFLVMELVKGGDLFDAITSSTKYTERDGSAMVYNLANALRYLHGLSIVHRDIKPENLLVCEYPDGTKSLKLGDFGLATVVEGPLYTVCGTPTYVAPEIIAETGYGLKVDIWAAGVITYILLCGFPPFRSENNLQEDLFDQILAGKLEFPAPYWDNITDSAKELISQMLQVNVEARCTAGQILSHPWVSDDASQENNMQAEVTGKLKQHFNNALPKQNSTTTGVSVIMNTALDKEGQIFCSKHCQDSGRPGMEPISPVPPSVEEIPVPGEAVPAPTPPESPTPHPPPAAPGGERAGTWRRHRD

Test [3] deals with T3, MST1 (h) (human) (UniProt Q13043).
T3 sequence (looked up): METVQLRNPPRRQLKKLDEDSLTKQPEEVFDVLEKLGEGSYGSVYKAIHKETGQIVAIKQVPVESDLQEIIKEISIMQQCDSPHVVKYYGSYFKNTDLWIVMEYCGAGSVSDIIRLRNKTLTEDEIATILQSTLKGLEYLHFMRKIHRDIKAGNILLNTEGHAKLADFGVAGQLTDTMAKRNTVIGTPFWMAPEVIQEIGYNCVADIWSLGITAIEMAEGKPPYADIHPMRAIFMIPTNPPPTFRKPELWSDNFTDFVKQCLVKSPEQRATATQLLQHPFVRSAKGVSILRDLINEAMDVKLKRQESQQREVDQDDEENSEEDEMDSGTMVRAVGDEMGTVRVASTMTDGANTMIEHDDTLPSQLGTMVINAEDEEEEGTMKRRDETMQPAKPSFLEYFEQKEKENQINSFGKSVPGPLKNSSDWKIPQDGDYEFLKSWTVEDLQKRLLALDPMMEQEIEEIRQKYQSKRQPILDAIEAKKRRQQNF

In test [4] the target is Abl (Q252H) (h) (human) (UniProt P00519).
Sequence of Abl (Q252H) (h) (human) (P00519 27-1130 Q252H limits assumed): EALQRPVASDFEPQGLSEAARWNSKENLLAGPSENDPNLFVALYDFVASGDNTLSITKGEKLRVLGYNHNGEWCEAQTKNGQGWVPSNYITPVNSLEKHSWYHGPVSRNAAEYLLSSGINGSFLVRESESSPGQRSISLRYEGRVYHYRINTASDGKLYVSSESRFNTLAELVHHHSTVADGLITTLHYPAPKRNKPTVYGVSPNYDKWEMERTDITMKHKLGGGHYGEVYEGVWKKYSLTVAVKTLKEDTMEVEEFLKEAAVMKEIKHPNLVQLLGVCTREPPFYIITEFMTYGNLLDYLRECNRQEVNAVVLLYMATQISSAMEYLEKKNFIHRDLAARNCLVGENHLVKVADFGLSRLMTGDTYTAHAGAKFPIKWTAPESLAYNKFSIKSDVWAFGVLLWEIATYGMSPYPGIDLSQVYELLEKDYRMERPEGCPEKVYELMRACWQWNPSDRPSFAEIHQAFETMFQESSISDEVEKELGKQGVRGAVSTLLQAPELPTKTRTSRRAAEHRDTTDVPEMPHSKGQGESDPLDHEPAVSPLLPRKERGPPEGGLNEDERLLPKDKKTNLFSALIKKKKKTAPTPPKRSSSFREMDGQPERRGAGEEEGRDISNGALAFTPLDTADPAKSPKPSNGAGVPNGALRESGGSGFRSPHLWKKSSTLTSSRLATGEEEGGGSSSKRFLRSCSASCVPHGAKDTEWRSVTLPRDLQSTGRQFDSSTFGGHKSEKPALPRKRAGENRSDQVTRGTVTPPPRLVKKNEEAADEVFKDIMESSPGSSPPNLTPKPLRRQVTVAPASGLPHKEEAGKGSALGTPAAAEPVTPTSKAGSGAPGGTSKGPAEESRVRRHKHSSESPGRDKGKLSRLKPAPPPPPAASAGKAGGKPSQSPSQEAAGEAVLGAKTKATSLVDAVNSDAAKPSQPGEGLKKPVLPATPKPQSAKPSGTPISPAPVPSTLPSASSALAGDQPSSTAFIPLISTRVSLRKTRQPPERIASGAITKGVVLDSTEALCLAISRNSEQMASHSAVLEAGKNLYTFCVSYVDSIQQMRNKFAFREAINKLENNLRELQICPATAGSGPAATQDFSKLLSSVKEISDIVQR
The target in test [5] is T4, IKKα (h) (human) (UniProt O15111).
T4 sequence (looked up): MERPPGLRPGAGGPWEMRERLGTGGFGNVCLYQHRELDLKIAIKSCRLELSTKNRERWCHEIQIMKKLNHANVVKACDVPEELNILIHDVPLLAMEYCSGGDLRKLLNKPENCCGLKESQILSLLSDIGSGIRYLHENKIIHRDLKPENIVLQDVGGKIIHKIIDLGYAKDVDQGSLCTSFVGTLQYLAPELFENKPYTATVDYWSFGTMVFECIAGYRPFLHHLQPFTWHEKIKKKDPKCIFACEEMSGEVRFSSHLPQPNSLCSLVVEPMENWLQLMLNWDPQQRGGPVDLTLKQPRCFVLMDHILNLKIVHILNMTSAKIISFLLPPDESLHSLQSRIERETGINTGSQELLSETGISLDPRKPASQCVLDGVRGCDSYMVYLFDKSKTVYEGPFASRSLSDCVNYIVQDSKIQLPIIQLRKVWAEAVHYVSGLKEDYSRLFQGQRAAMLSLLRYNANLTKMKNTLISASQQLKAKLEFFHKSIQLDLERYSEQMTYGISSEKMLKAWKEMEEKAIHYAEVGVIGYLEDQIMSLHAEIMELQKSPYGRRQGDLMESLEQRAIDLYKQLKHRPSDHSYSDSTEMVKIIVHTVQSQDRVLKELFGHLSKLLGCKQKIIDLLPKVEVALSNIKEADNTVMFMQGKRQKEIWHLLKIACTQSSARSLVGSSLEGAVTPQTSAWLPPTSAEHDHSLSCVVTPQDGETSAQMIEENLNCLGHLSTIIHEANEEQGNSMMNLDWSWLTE

For test [6], the target named is PKCβII (h) (human) (UniProt P05771).
Test [7] has as its target T5, LKB1 (h) (human) (UniProt Q15831).
T5 sequence (looked up): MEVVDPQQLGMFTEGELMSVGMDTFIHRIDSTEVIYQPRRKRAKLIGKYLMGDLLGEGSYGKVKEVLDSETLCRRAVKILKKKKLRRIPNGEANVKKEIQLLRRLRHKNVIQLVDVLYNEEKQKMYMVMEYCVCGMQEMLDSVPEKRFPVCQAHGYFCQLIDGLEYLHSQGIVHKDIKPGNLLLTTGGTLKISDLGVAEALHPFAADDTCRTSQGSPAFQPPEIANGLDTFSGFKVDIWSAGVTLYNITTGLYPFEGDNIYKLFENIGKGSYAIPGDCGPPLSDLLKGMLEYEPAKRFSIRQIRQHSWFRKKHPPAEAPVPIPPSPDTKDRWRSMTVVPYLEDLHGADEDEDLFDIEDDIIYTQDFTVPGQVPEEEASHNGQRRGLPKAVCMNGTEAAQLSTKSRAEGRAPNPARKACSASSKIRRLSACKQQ

On to MMI-0300 (peptide), for which the % activity at 100 µM in test [1] turned out to be 92%; in test [2], 81%; in test [3] it was 14%; in test [4] it was 82%; in test [5], 93%; in test [6] it was 82%. Also, the % activity at 100 µM in test [7] is 101%.
